The supplement of paper PMC12636428

Tested on: Saccharomyces cerevisiae
Assay: transcriptional activation domain activity (GFP:mCherry ratio, weighted mean of sorted bins, harmonized to initial dataset scale) (arbitrary fluorescence ratio units); higher = stronger transcriptional activation
Details: beta-estradiol 1 µM; induction time 4 h
In short: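 The listed activation activity is a read-weighted mean of bin median fluorescence, averaged across barcodes and linearly mapped onto the initial dataset scale. Barcoded tiles, fused to an estradiol-inducible synthetic transcription factor, were integrated at URA3 in yeast diploids bearing a GFP reporter. Cells were held 4 hours at 30 °C in SC with 1 uM beta-estradiol, sorted into 8 GFP:mCherry bins, and sequenced, and tiles with fewer than 50 reads were excluded.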

Sequence | transcriptional activation domain activity
VEEVLEKRAHRGPAGRSVEEEDEDVEEVLEKRAHRGPAGRSVEVEEKRAHRGP | 29700
VEFLFPIYATVAFTTLGCISMFALPYAVLTILPNFYLNCPYGTPLSGVTWRLS | 61600
VENPVTDDNGNLKLELPDNLDNADFSKLLEFDAKNDEALFNSNELLSHTMDPV | 94700
VEPAPENWRELTQIPAFAGIRSASFVRHTVALVESLLLRAAFVRAVFAELRAC | 53700
VEQYLHLLPPHSLQEIRWRWRMTKVSRPIPEKMKLVRLNLKAVKHIHLFMKSA | 31500
VERCHRNIVPNGCAVFQAGGLVVVLVEVSRKSYLASLVPVIVNAILNEHQIVV | 65300
VERCHRNIVTNGCAVFQAGGLVVVLVEVNRKSYLASIVPVIVNAILNEHQIIV | 40900
VETRSFWFLPVIQKHALHLTMVDILSSTPGIWCLSEFMIGHLLLCVHLRSISV | 60500
VFCMLYTLLHILAACLHYHCFSHLAPPYQTLLWYSYFNVIIVGLLLFWYCELV | 35100
VFERVRLDWLILFDLRMWKKVRNDLRALYISTVVTIPEFKRILGLRFAALYTT | 51300
VFFFLVIALYPFFSSLFTRHGFYTFSPFNCQLSWLFFQWGHSILLFLLRLVSY | 46600
VFFLSLCFASFFPLGHLCWAKGLFHTLEFIAPISRSVSCYVMGLVLYTFHLPE | 22000
VFFMPSMCSGYLWISLCYLSFWTNMREWRLKRKVVWFLCLFWVFMCCLLFYLT | 34700
VFFVWICCCYGTHILSVFVDPSGMYIVPLNILGSLLHGSTLPCIVASWLIIHL | 45600
VFIAVLSCVGTCGASYLCISFMPLVCHNSPYYTPLSSLIWSCRAGLRCLYLWI | 55300
VFLFLLTYFTIDIGLTNLPPLVIITVYLPHPPPLPDILLYWVLFLCCAVWGAV | 39800
VFLGMLFWHCRNYLTSYHYLFSTLAIWVLSYIMRLFYLNWSNPWRMSWLIGDE | 58300
VFLHHFRRAIFPLCNLVCSSWNVITFSHPWMIFAIIMFLHWSWILGLQKGMLI | 83600
VFLKVYLLNPLHMTRFADLLYQGAILNRIFQPYESHLQYLLQWMCDYNLYGCA | 71200
VFLNGILFLGSILFYQVVLLRLNWYLLHILAYTIAFAYNAFWLYPVYCLSFLL | 33000
VFRLCLGDLFRPYGISLNVIRLMLMATGTDLDFYVPRSKWRQVLLFLRLASGY | 72200
VFRLYFYLLYFIFYRNLFARLRNWEQYTLIQVASSVWVIIFYPLRMTRTTHGL | 65900
VFSQTEAIRVLGLIGRIATGRHLDIILSDILPPSTVAELYALGKFMNLPWWYR | 58400
VFTDSLFQIVLVGRLTGFFYSFSFLFFFLSFFFFFSFIPFFPPFLYGLFFFLF | 67600
VFTSLHTCRFAAPHLWWLIFSILCLQYLIILEVFVIAMLVFIIGPLIYLFWNI | 42600

Sequence | transcriptional activation domain activity
VFVPIPGLRNRRVHILLPNLYLLHQITFFRFSRRRSTLVLLLVCVSIVFAMYA | 36500
VFWRSLFNRVFDFGFDLVLFVFFSLALSLYFVVSHSKSLPFWFMCFFFIPLFN | 78000
VFYGSNYFFICAISYVKGLGFCISDSFRYSWMSISPYWMIFMVVCNILPAILI | 63900
VGAVMVRGQDYVPAFDVAPDWESYDYAKLDPTNDDDKEFINNMWAWDKPVSVN | 57300
VGEEGEEKESMRVRVREEMVAQATSLAFLRNVNAIGEETTSLLDTAARLVRIG | 63700
VGETVVTFCYEDGIMVMAMVGSGFMGYYLYTLQVKHSFSGPGPWFLGMALICL | 68700
VGEWMGGGVGCLAAWLGHGIRIFGGTEYWLVPEFFFPLFLFFSFPPWSLVLFC | 74100
VGGEANGEVVKRKSKKKGGKEETDTEVVDGEDQSSRKVATRKLSRGKAEKKAK | 48900
VGIKVAEDKQQEMRDAGRRTRGARLSSFGNALVIGGGRLSDGYVGTRELKTHV | 50500
VGISLFLIACKLYLTVYYNELLISNPASAKSIYKILEYVNIMVYVSKAFGMYQ | 62800
VGKSCGRCRFPICYNPRGTCICCALRSNIVIPWMHFAYRNPHDRKPFVLHFTF | 41700
VGLAIYCVSQHLMIPSATELICMYPVVNSTIGLITYYYLIFSFLFGIMIITYC | 64600
VGLFGMGQKRISALIGVLFAFTLGCVLILRWRLPWYRNLIQTLLYHLFVIYLH | 52600
VGLKWGMGRDKSFSFTSKLNNPQFLGSLDLEILEELEKLISAQEFSRNFTEDV | 70100
VGLVGMSLSILGKDHLVWNALAACRTEISEVFERMLRALYHWMIDVAHQYCGK | 56300
VGLYSLCIVSGILFPLYICCWREDFLIQNFVHRSLFTLVFMLLFLLGLIFLEF | 56900
VGPLSLDIILNKYDQDTELCAIVHESRRMLVRFYDIVKQNAMVIYSVFLWIPT | 50900
VGRLVWFVTLLHVLFWVVQVLKDRRALTGKLVFAYVWQYQKFRFAWVAFLSMT | 75200
VGRVTDKSSLVYDWPFDESIERNFSTTATAATGESKFDINDNCNRINSKSYSK | 45900
VGSAINTRLTTPKLVDSPKRPGCLSISRKDQHETYLSLLMRLVVASKMCLSAY | 50800
VGSLVYVTRYSEHLLVSGEFGPELLGAGAYYGGMLWFFFSSQNYRLLFHWQFW | 49800
VGSWTFGSIMVFGFSYLALTVLPNLCLNCPYSTPVSEMSWHLSHRLLLFILLL | 31800
VGTLHENLSSSHFMIPDVDQFNSFEDFFQDFFDSLKPNSQKMFTSDKKTEQTT | 106000
VGTVMFGLACASSTQVLLSLIGGWNVGFFISLLAVTIFAVLTKIIPWVWYIYS | 58300
VGVWIWVRVDLLSYRKAGFIDWLFTDVPPKLALIAIFNVHILHTLLLALQWYT | 55400

Sequence | transcriptional activation domain activity
VHANQYYQLDVEIFKSSLDMELLGLLWNKYWINTLSQSPLISVSLFCYGHIFI | 57800
VHEQLEVALRRWRISSIMEGTRVRDVLIRLPLAHSFASLSSKVNILLHEMLFE | 45700
VHEVRAKAVKLVTASDSDDESGAGAGKAKKSEWKTQGVGPLRLLKNKSTGAVR | 32400
VHFIYHHSFRMRFYYFFLLSFLQAGRSIGFLIHGFWCFLLLIAFFVYPFLRFV | 64600
VHGSSFLVRYFVYITPLVLVILIPLLLGALLFKHASVAGVEMVWFCIWLEIVW | 50100
VHLGVLFTLSIPYVRLWLIPRLFVCIFVRAFLFLLLFSGIVYPEFFFFFFFLR | 40800
VHLLLTVFFHYVPTPDPFFTNLLLCPLDGLLRANSVTLALSLLSRPSINPLLV | 58300
VHLTLNLGTYLRVISIGKPFPMWLDYWYNYGYILYCAILQLYELWQIVILIWL | 60100
VHNNSNNSNNSNISASDYTVANNSTSNNNNNNNNNNNNNNNIHPNQFTAAANM | 39200
VHPIVCLVVCLLGHIWSFHVYYCLLKIGLLFSLFPLVRLARCAIFYRRCFSYF | 40200
VHVNDMVGFKFMSDKHEIFSKVLLTDVLKGTLAHQWLGYNVLFSNGSEWHFFR | 59100
VIDGSYTTSLKMILFLLAISGQNLLFFFILISLTFLLFLFSTCLCMILLDALI | 22100
VIEGNTSPAVGIEMCHVMLCSLVKELYQRVAASGMTFVLSVSVECLLSQTLQT | 31800
VIEKLFWRVSALYICTHQFLLWALFMIRDYLLSKYPGSQLVLRCHMVLKIMLF | 46400
VIFSFLVLNFFYFSISFFLSSSFISYFHFHLSLFPFPFSFVFLIHYLFSFIVN | 26300
VIGGGATGSGVAVDAASRGLKVALVERDDFSSGTSSKSTKLVHGGVRYLQKAV | 69700
VIHLMNMGQVSILFIHRFIYGVVPLFEIVSCSFWPLLVSLWHLDYILIYLIMF | 46300
VIHTTAKPYKLHFSNTLLVSTVGLLALLVTTMVFVPWNNYYLPRKWGVFLICF | 42700
VIIQLQKLFLVSISLKLVQRISSLNQLFKTSVASLPAIGNLFLLWATLFIFFA | 53000
VIITLICRYEMHSTRLRLRGMSILSFLVNYTGRSMCNIKTTGFLDMIFALRQV | 47100
VIIVLIFAVACHLAFGTSVVVFIWRTALLRDISKLSRTNIMPMCISQVVADVL | 42900
VILGYCSLFVWFAVCGFCFLCFCVFVFLCFLFFVFFWHSSLGYLAGLAIIITF | 18300
VILLPLSFSLWYCLLFAYGILVSLYLLTLKNPTEINFLGFYIWKYENAFWVLM | 60100
VILYLLMLIGNVTVVSWIVSLFFLSRKSYLKLGFKMVLVRKWYFKNVCQYVDY | 67400
